# In the supplement of paper PMC9233669:
# Variants at the floor of the assay were thinned out.
# How the values were obtained:
# [1] = system: biotinyl-Phe-oxazolone; assay: self-aminoacylation, catalytic enhancement (BFO) (fold over background); higher = more active; k-Seq, kA / k0A0; sequences stand for … in GGGAAUGGAUCCACAUCUACGAAUUC…UUCACUGCAGACUUGACGAAGCUG
# Summary of the method: (§1)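 Mutagenized RNA pools (0.43 μM; 21-nt variable region) were treated with 2–1250 μM of each biotinyl-aminoacyl-oxazolone. Conditions were 50 μL HEPES/NaCl/KCl/MgCl2/CaCl2 buffer, 5% acetonitrile, pH 6.9–7.0, room temperature, 90 minutes. Catalytic enhancement, the median kA relative to the uncatalyzed rate, was derived from streptavidin capture, qPCR and Illumina sequencing.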
# [2] = system: biotinyl-Ile-oxazolone; assay: self-aminoacylation, catalytic enhancement (BIO) (fold over background); higher = more active; k-Seq, kA / k0A0; sequences stand for … in GGGAAUGGAUCCACAUCUACGAAUUC…UUCACUGCAGACUUGACGAAGCUG
# Summary of the method: as §1
# [3] = system: biotinyl-Met-oxazolone; assay: self-aminoacylation, catalytic enhancement (BMO) (fold over background); higher = more active; k-Seq, kA / k0A0; sequences stand for … in GGGAAUGGAUCCACAUCUACGAAUUC…UUCACUGCAGACUUGACGAAGCUG
# Summary of the method: as §1
# [4] = system: biotinyl-Val-oxazolone; assay: self-aminoacylation, catalytic enhancement (BVO) (fold over background); higher = more active; k-Seq, kA / k0A0; sequences stand for … in GGGAAUGGAUCCACAUCUACGAAUUC…UUCACUGCAGACUUGACGAAGCUG
# Summary of the method: as §1
# [5] = system: biotinyl-Leu-oxazolone; assay: self-aminoacylation, catalytic enhancement (BLO) (fold over background); higher = more active; k-Seq, kA / k0A0; sequences stand for … in GGGAAUGGAUCCACAUCUACGAAUUC…UUCACUGCAGACUUGACGAAGCUG
# Summary of the method: as §1
# [6] = system: biotinyl-Trp-oxazolone; assay: self-aminoacylation, catalytic enhancement (BWO) (fold over background); higher = more active; k-Seq, kA / k0A0; sequences stand for … in GGGAAUGGAUCCACAUCUACGAAUUC…UUCACUGCAGACUUGACGAAGCUG
# Summary of the method: as §1
Sequence,self-aminoacylation [1],self-aminoacylation [2],self-aminoacylation [3],self-aminoacylation [4],self-aminoacylation [5],self-aminoacylation [6]
CUACUUCCUACAAUCGGUCUG [Fam1A.1 aminoacylation ribozyme variant],0.51,0.76,0.835,0.801,0.671,0.511
CUACUUCGAACAAUAGGUCUG [Fam1A.1 aminoacylation ribozyme variant],0.503,0.547,0.471,0.745,0.461,0.421
CUACUUCGACCAAUCGGUCUG [Fam1A.1 aminoacylation ribozyme variant],0.674,0.854,0.856,0.908,0.979,0.379
CUACUUCGGACAAUCGGUCUG [Fam1A.1 aminoacylation ribozyme variant],0.631,0.815,0.928,0.923,0.867,0.75
CUACUUCUAACAAUCGCUCUG [Fam1A.1 aminoacylation ribozyme variant],0.385,0.612,0.553,0.559,0.602,0.498
CUACUUCUAACAAUCGGUCCG [Fam1A.1 aminoacylation ribozyme variant],0.505,0.708,0.765,0.621,0.799,0.63
CUACUUCUAACAGUCGGUCUG [Fam1A.1 aminoacylation ribozyme variant],0.402,0.521,0.672,0.597,0.611,0.349
CUACUUGAAACAAUCGGACUG [Fam1A.1 aminoacylation ribozyme variant],0.551,0.922,0.782,0.786,0.944,0.651
CUACUUGAAACAAUCGGCCUG [Fam1A.1 aminoacylation ribozyme variant],0.788,1.84,1.96,1.68,1.45,1.38
CUACUUGAAACAAUCGGUCUC [Fam1A.1 aminoacylation ribozyme variant],0.658,0.789,0.827,0.688,0.657,0.561
CUACUUGAAACAAUCGGUUUG [Fam1A.1 aminoacylation ribozyme variant],0.458,0.907,0.938,0.77,0.89,0.944
CUACUUGAAACUAUCGGUCUG [Fam1A.1 aminoacylation ribozyme variant],0.599,1.03,0.986,0.975,0.941,0.685
CUACUUGAAAGAAUCGGUCUG [Fam1A.1 aminoacylation ribozyme variant],0.599,0.869,0.974,0.771,0.693,0.731
CUACUUGAGACAAUCGGUCUG [Fam1A.1 aminoacylation ribozyme variant],0.89,0.884,0.94,1.01,0.962,1.1
CUACUUGUAACAAUCGGUCUG [Fam1A.1 aminoacylation ribozyme variant],0.824,0.651,0.806,0.658,0.678,0.573
CUACUUUAAACAAUCGGGCUG [Fam1A.1 aminoacylation ribozyme variant],0.648,1.2,1.25,1.06,1.07,0.746
CUACUUUAAACAAUCGGUCGG [Fam1A.1 aminoacylation ribozyme variant],0.521,0.945,1.08,0.911,0.963,0.769
CUACUUUAAACAAUCGGUGUG [Fam1A.1 aminoacylation ribozyme variant],0.998,0.722,0.925,0.737,0.855,0.673
CUACUUUAAACAAUCGGUUUG [Fam1A.1 aminoacylation ribozyme variant],0.922,0.824,0.786,0.8,0.776,0.724
CUACUUUAAACGAUCGGUCUG [Fam1A.1 aminoacylation ribozyme variant],0.589,0.808,0.885,0.844,0.863,0.759
CUACUUUAACCAAUCGGUCUG [Fam1A.1 aminoacylation ribozyme variant],1.22,0.883,0.779,0.842,0.662,0.949
CUACUUUAAGCAAUCGGUCUG [Fam1A.1 aminoacylation ribozyme variant],0.5,0.721,0.749,0.685,0.69,0.51
CUACUUUAAUCAAUCGGUCUG [Fam1A.1 aminoacylation ribozyme variant],1.43,0.955,0.892,0.915,0.78,0.755
CUAGUUCAAAAAAUCGGUCUG [Fam1A.1 aminoacylation ribozyme variant],2.72,0.934,0.842,0.752,0.838,2.08
CUAGUUCUAACAAUCGGUCUG [Fam1A.1 aminoacylation ribozyme variant],0.672,0.831,0.762,0.762,0.849,0.588
CUAUUUCAAACAAUCGGUCUC [Fam1A.1 aminoacylation ribozyme variant],7.11,0.818,0.775,0.835,0.785,3.67
